The results in this text go back to paper PMC12440826, “Shigella flexneri evades LPS ubiquitylation through IpaH1.4-mediated degradation of RNF213” (Nature Structural & Molecular Biology, 2025).

This assay has as its target T1, 2×Strep–RNF213 (WT human RNF213) (human, UniProt Q63HN8 1-5207).
T1 construct: RNF213, human E3 ubiquitin ligase; plasmid pOP806_pACEBac1 2×Strep–RNF213; the N terminus (residues 1–398) is not resolved in the maps; source: Sf9, purified (StrepTrap HP)
In words: cryo-EM structure; RNF213 (around 2 μM) mixed with a fivefold molar excess of IpaH1.4/2.5 (10 μM), incubated on ice for 30 min, vitrified on all-gold grids. As to conditions: both partners purified.

T1 sequence (Q63HN8 whole entry, the tested form may be a part): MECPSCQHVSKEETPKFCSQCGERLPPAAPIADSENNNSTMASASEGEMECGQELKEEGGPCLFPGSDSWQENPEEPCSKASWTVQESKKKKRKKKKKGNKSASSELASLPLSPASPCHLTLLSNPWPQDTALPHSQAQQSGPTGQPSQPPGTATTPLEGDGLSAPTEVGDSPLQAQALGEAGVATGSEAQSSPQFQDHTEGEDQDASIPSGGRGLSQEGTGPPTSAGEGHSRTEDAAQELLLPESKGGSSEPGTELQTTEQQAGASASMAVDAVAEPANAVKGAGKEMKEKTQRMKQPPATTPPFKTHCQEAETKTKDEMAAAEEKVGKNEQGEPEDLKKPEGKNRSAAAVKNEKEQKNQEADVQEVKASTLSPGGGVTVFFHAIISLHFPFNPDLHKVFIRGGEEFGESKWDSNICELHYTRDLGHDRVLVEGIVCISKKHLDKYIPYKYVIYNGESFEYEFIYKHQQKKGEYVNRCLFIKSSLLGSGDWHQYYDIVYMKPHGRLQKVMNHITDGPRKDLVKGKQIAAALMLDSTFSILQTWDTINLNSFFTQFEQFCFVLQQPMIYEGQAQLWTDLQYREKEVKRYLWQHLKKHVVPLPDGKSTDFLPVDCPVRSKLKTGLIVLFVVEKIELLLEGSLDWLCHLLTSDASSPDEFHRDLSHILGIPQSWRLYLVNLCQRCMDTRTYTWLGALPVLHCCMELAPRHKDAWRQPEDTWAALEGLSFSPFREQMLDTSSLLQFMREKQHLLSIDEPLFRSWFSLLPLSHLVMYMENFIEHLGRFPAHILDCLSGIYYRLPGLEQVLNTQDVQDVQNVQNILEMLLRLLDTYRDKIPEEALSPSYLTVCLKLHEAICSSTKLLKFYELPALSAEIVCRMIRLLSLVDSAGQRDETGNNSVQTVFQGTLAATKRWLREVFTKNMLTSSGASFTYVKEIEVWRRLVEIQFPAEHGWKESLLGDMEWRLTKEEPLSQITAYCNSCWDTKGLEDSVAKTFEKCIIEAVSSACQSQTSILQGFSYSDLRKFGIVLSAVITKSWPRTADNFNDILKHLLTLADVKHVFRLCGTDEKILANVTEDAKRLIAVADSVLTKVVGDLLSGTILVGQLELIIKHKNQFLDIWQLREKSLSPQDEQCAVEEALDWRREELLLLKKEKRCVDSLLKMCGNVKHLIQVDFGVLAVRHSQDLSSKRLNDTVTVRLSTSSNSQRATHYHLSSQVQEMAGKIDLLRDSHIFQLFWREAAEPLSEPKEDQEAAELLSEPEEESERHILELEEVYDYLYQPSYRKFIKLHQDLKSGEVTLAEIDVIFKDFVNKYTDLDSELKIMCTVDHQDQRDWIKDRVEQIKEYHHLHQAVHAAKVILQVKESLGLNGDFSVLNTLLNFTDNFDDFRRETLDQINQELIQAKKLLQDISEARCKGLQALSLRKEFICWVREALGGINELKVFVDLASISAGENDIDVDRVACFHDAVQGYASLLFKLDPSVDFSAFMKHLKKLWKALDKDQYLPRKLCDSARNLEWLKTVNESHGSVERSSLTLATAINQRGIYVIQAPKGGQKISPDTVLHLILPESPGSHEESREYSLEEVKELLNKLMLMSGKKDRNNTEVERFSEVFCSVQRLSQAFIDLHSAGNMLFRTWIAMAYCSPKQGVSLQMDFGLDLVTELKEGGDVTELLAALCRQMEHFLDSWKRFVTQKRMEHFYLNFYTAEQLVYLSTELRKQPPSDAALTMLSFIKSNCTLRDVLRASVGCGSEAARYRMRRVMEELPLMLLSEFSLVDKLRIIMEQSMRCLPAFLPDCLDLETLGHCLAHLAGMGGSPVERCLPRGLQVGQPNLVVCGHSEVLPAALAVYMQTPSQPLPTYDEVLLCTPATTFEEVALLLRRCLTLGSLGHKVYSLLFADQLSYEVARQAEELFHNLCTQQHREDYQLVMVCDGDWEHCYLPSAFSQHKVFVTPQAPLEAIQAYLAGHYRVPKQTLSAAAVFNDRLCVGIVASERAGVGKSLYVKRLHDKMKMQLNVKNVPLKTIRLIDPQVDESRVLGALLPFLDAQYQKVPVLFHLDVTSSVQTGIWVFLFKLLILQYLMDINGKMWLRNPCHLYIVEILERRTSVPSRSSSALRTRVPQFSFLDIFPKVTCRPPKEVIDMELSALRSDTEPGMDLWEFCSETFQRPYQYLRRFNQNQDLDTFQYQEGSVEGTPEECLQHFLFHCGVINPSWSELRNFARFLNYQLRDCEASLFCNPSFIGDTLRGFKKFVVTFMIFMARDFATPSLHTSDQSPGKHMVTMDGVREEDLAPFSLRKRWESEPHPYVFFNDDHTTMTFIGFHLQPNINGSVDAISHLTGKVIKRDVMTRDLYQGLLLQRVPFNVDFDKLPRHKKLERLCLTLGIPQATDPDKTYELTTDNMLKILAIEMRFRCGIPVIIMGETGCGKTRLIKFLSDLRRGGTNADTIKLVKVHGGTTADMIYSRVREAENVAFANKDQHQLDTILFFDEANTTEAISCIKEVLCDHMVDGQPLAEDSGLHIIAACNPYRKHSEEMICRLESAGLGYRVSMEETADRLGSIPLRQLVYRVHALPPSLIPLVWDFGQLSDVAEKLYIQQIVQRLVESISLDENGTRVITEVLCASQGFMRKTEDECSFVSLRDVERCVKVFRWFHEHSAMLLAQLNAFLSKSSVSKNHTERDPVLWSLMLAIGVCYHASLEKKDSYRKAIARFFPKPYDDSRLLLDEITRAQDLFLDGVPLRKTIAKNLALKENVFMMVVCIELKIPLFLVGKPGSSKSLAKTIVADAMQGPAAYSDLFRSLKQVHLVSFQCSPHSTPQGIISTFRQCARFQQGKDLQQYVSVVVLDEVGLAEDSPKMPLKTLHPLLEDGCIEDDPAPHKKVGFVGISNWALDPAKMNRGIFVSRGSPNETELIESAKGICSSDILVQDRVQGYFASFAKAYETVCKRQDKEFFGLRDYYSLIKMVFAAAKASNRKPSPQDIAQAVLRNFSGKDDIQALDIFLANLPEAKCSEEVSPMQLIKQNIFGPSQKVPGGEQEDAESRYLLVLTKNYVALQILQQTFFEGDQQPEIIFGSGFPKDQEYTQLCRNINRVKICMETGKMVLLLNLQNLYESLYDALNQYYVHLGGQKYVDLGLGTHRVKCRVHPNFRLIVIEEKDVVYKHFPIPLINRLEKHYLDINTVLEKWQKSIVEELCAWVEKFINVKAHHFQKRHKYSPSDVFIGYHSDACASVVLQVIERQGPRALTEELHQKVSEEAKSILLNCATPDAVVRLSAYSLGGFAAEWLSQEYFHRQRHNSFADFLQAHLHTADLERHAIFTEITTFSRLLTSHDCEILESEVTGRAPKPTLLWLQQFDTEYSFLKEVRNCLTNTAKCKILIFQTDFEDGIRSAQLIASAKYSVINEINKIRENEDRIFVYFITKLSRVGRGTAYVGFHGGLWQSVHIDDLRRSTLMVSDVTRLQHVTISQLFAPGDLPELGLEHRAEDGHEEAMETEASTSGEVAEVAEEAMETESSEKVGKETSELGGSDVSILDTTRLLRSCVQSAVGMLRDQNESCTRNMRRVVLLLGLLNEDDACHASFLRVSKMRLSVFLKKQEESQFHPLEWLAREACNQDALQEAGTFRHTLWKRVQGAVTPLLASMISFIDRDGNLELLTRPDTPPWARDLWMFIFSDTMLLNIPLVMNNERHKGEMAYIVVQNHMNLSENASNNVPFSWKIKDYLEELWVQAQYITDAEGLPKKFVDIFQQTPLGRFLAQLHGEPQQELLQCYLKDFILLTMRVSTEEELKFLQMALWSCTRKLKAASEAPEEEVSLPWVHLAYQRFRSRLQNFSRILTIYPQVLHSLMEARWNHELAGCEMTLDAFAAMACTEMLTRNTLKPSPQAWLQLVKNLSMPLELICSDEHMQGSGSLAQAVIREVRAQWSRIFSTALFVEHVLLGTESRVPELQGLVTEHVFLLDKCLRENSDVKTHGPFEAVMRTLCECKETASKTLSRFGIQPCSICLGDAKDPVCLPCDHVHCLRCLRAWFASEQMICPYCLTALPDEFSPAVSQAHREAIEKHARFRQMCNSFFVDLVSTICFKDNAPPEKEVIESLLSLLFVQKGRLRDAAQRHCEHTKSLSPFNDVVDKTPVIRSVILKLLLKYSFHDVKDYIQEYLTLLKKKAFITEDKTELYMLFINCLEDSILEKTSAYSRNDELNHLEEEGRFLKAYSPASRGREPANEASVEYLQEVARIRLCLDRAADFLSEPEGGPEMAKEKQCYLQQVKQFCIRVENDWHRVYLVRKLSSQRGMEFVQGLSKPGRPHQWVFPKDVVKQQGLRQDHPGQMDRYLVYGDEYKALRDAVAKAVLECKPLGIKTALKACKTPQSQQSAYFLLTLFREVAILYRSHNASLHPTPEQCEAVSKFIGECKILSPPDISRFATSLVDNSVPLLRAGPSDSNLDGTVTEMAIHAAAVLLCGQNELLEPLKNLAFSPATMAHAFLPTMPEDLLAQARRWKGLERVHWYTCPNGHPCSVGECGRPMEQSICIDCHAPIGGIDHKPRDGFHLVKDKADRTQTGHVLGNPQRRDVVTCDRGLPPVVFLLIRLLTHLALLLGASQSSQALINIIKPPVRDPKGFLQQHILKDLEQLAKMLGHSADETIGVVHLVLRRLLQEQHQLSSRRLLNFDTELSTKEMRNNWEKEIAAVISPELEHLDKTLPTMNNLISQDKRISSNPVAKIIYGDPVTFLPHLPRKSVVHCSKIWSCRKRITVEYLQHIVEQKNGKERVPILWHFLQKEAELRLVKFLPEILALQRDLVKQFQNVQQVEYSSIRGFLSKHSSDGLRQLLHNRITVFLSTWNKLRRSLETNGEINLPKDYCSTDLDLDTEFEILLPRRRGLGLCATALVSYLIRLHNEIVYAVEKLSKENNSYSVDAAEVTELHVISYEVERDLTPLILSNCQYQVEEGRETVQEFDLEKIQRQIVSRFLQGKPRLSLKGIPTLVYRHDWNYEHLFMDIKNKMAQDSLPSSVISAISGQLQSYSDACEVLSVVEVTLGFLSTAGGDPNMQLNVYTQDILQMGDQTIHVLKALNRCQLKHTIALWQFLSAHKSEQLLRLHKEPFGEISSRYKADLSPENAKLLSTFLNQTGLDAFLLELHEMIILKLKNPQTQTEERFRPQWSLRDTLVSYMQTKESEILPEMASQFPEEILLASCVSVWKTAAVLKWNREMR

B1: IpaH1.4 (untagged, recombinant) (enzyme)
chain: MIKSTNIQAIGSGIMHQINNVYSLTPLSLPMELTPSCNEFYLKTWSEWEKNGTPGEQRNIAFNRLKICLQNQEAELNLSELDLKTLPDLPPQITTLEIRKNLLTHLPDLPPMLKVIHAQFNQLESLPALPETLEELNAGDNKIKELPFLPENLTHLRVHNNRLHILPLLPPELKLLVVSGNRLDSIPPFPDKLEGLALANNFIEQLPELPFSMNRAVLMNNNLTTLPESVLRLAQNAFVNVAGNPLSGHTMRTLQQITTGPDYSGPQIFFSMGNSATISAPEHSLADAVTAWFPENKQSDVSQIWHAFEHEEHANTFSAFLDRLSDTVSARNTSGFREQVAAWLEKLSASAELRQQSFAVAADATESCEDRVALTWNNLRKTLLVHQASEGLFDNDTGALLSLGREMFRLEILEDIARDKVRTLHFVDEIEVYLAFQTMLAEKLQLSTAVKEMRFYGVSGVTANDLRTAEAMVRSREENEFTDWFSLWGPWHAVLKRTEADRWAQAEEQKYEMLENEYSQRVADRLKASGLSGDADAEREAGAQVMRETEQQIYRQLTDEVLALRLSENGSNHIA
notes: IpaH1.4, secreted E3 ubiquitin ligase effector of Shigella flexneri; open reading frame cloned into pETM-30; only the LRR domain is resolved in the map; also called WT IpaH1.4; not shown: 6xHis, N-terminal, cleaved; GST, N-terminal, cleaved
Take B1: the binding result was “binds”.
